Where no end group is shown, it is not given here.
Assays:
[1] = molecular target: T1, Peptide 3p8 (Poly alanine with last 4 residues NPFF); experiment: SPR (Biacore), FIG. 12
T1 peptide: AAAAAAAAAAAAAPQRF-NH2
Protocol: (§1) Epitope mapping and determination of the affinity of MAb 5E12-B7 was also performed using a Biacore 2000 unit (GE Healthcare). Briefly, purified MAb 5E12-B7 was biotinylated as described above, except that the biotinylation reaction was performed at a 20:1 molar ratio of biotin:Ig. An SA-Chip (GE Healthcare) was docked into the Biacore 2000 unit and HBS-EP buffer (GE) was allowed to run over all 4 flow channels at 40 μL/min until signal had stabilized. The flow path was then switched to channel 4 only and HBS-EP containing 60 μg/mL biotinylated antibody was injected at 40 μL/min for 5 min to couple MAb 5E12-B7 to the chip via biotin-streptavidin binding. HBS-EP buffer was then run over channel 4 at 40 μL/min for over 30 min to remove all uncoupled Ig from the Biacore system then the flow path was changed to pass through all 4 flow channels. Association and dissociation of the peptides in Table 3 was measured using the Biacore Application Wizard. In each case, a baseline was established by passing HBS-EP over all 4 channels at 40 μL/min for 1 min before association was measure by injection of peptide (diluted to 1, 10, 100 or 1000 nM in HBS-EP) at 40 μL/min for 5 min. Dissociation was measured by allowing HBS-EP to pass over all 4 channels at 40 μL/min for 30 min. The kd, kₐ and KD were determined for each peptide by curve fitting using the BIAevalutation software.

[2] = molecular target: T2, Peptide 3p7 (Brain Neuropeptide I); experiment: SPR (Biacore), FIG. 12
T2 peptide: AGEGLSSPFWSLAAPQRF-NH2
Protocol: as §1

Peptide 3p6 (ala-NPFF) = molecular target: T3, Peptide 3p6 (ala-NPFF); experiment: SPR (Biacore), FIG. 12
T3 construct: Last 8 residues of NPFF on a poly-alanine helix
T3 peptide: AAAAAAAAAFLFQPQRF-NH2
Protocol: as §1

1p19-AEDMARYYSA = molecular target: T4, 1p19-AEDMARYYSA; experiment: indirect ELISA, peptide coated on the plate (20 µg/mL), MAb 5E12-B7 at 1 µg/mL, O.D. 450 nm
T4 construct: also called Peptide 1p19 (10 mer shifting across NPY)
T4 peptide: AEDMARYYSA-NH2
Protocol: (§2) ELISA was used to map the reactivity of purified MAb 5E12-B7 against the peptides described in Table 3. Briefly, ELISA microwell plates (96-well Maxisorp, Nunc) were coated overnight at 4° C. with 50 μL of mapping peptides (Table 3) diluted to 20 μg/mL in carbonate coating buffer (CCB). Between each of the following steps, microwell plates were washed three times with PBST using a plate washer (BioTek). Coated wells were blocked with 200 μL PBS containing 5% w/v skim milk (Diploma). Blocked wells were incubated for 1 hr with 50 μL of MAb 5E12-B7 diluted to 1 μg/mL in skim milk/PBST. Wells were then incubated for 1 hr with 50 μL Peroxidase-conjugated AffiniPure F(ab)2 fragment goat anti-mouse secondary antibody (Jackson) diluted 1:5000 in skim milk/PBST. Ig binding was detected by incubation of wells with 50 μL TMB substrate (Becton Dickinson). Substrate reaction was stopped after 15 min with 50 μL 1M H₂SO₄ and O.D. 450 nm was measured.

1p20-EDMARYYSAL = molecular target: T5, 1p20-EDMARYYSAL; experiment: as above
T5 construct: NPY residues 15-24; also called Peptide 1p20 (10 mer shifting across NPY)
T5 peptide: EDMARYYSAL-NH2
Protocol: as §2

1p29-LRHYINLITR = molecular target: T6, 1p29-LRHYINLITR; experiment: as above
T6 construct: NPY residues 24-33; also called Peptide 1p29 (10 mer shifting across NPY)
T6 peptide: LRHYINLITR-NH2
Protocol: as §2

1p26-YSALRHYINL = molecular target: T7, 1p26-YSALRHYINL; experiment: as above
T7 construct: NPY residues 21-30; also called Peptide 1p26 (10 mer shifting across NPY)
T7 peptide: YSALRHYINL-NH2
Protocol: as §2

1p27-SALRHYINLI = molecular target: T8, 1p27-SALRHYINLI; experiment: as above
T8 construct: NPY residues 22-31; also called Peptide 1p27 (10 mer shifting across NPY)
T8 peptide: SALRHYINLI-NH2
Protocol: as §2

1p28-ALRHYINLIT = molecular target: T9, 1p28-ALRHYINLIT; experiment: as above
T9 construct: NPY residues 23-32; also called Peptide 1p28 (10 mer shifting across NPY)
T9 peptide: ALRHYINLIT-NH2
Protocol: as §2

human PYY (Phoenix) = molecular target: T10, human PYY (Phoenix) (human, C-terminal amide (-NH2)); experiment: SPR (Biacore 2000), biotinylated MAb on SA chip, peptide in solution
T10 construct: 36-residue whole peptide; also called hPYY
Protocol: as §1
(§3) The affinity of MAb 5E12-B7 to NPY, PYY and PP peptides was measured using a Biacore-2000 (GE-healthcare). Biotinylated MAb was loaded onto a single channel of a streptavidin chip, and dilute samples (1 nM-1 μM) of NPY, mPYY, hPYY, mPP and hPP were then run over all four channels of the chip to obtain blank-subtracted readings for peptide on and off-rates. Using this method, significant and/or detectable binding of MAb 5E12-B7 to NPY, mPYY and hPYY was detected. In contrast, no significant and/or detectable binding to mPP and hPP could be detected.

NPY (mouse NPY, Phoenix) = molecular target: T11, NPY (mouse NPY, Phoenix) (mouse, C-terminal amide (-NH2)); experiment: as above
T11 construct: 36-residue whole peptide bought from Phoenix Peptides; also called mNPY; neuropeptide Y
Protocol: as §1, §3

[3] = molecular target: T12, Peptide 3p18 (NPY C terminus with similar a.a. substitutions); experiment: SPR (Biacore), FIGS. 11A and 11B
T12 construct: Poly-alanine 17-mer ending QRF-amide
T12 peptide: AAAAAAAAAAAAAAQRF-NH2
Protocol: as §1

[4] = molecular target: T13, Peptide 3p19 (NPY C terminus with similar a.a. substitutions); experiment: SPR (Biacore), FIGS. 11A and 11B
T13 construct: Poly-alanine 17-mer ending QRW-amide
T13 peptide: AAAAAAAAAAAAAAQRW-NH2
Protocol: as §1

[5] = molecular target: T14, Peptide 3p17 (NPY C terminus with similar a.a. substitutions); experiment: SPR (Biacore), FIGS. 11A and 11B
T14 construct: Poly-alanine 17-mer ending QRH-amide
T14 peptide: AAAAAAAAAAAAAAQRH-NH2
Protocol: as §1

T10 sequence (peptide, as listed by the source): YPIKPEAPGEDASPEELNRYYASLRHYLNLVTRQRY

B1: MAb 5E12-B7 (antibody, V domains shown)
VH: QVQLQHPGTEVVKPGASVKLSCKASGYTFTNYWMHWVKQRPGQGLEWIGNIDPSNGGTNYNEKFKSKATLTVDKSSSTAYMQLSSLTSEDSAVYYCASFAYWGQGTLVTVSA
VL: DIQMTQSPASLSASVGETVTITCRASGNIHNYLAWYQQKQGKSPQLLVYNAKTLADGVPSRFSGSGSGTQYSLKISSLRPEDFGSYYCQHFWSPPFTFGSGTKLEIK
notes: Biotinylated for the Biacore and Octet assays; also called PYY/NPY antibody (5E12); anti-NPY/PYY antibody 5E12
- binding result [1]: no binding
- binding result [2]: no binding
- binding result (Peptide 3p6 (ala-NPFF)): no binding
- binding result (1p19-AEDMARYYSA): no binding (tested: 1 µg/mL)
- binding result (1p20-EDMARYYSAL): no binding (tested: 1 µg/mL)
- binding result (1p29-LRHYINLITR): no binding (tested: 1 µg/mL)
- binding result (1p26-YSALRHYINL): no binding (tested: 1 µg/mL)
- binding result (1p27-SALRHYINLI): no binding (tested: 1 µg/mL)
- binding result (1p28-ALRHYINLIT): no binding (tested: 1 µg/mL)
- Kd (human PYY (Phoenix)): 5.97 nM
- koff (human PYY (Phoenix)): 0.00138 s⁻¹
- kon (human PYY (Phoenix)): 251000 M⁻¹ s⁻¹
- Kd (NPY (mouse NPY, Phoenix)): 9.79 nM
- koff (NPY (mouse NPY, Phoenix)): 0.00142 s⁻¹
- kon (NPY (mouse NPY, Phoenix)): 149000 M⁻¹ s⁻¹
- binding result [3]: no binding
- binding result [4]: no binding
- binding result [5]: no binding

Reference: patent publication US20150307599A1 (GARVAN INSTITUTE OF MEDICAL RESEARCH, published 2015)
